Laboratory results reported in patent US20130183688A1 (BRIGHAM AND WOMEN S HOSPITAL, published 2013).

Key:
[1] = target: T1, murine galectin-9 long isoform (galectin-9-L), expressed in transiently transfected CHO cells (mouse, UniProt O08573 1-353); assay: intracellular staining of transfected CHO cells, anti-human IgG-Fc-PE, flow cytometry
T1 construct: Expressed from pIRES2-EGFP in CHO cells; intracellular staining of fixed cells
Excerpt: FIG. 11A Both regular and long isoforms for galectin-9 (galectin-9 and galectin-9-L respectively) are able to bind to TIM-3. Protein sequences between two galectin-9 isoforms are identical except a 31 amino acid peptide insert in the hinge region of galectin-9-L. Murine cDNAs for isoforms of galectin-9 from TK-1 cells were subcloned into a eukaryotic bicistronic expression vector pIRES2-EGFP. The plasmids were transiently transfected into CHO cells respectively. Cells were fixed for intracellular staining with flTIM-3-Ig (top row graphs), sTIM-3-Ig (center row graphs), and hIgG (bottom row graphs) and detected by anti-human IgG-Fc-PE 48 hours after transfection. EGFP positive signals in FACS analyses indicated transfected cells. The anti-human IgG-Fc-PE was used to detect the binding from Ig fusions or hIgG. FIG. 11B Murine cDNAs for galectin-9 (first column graphs), -4 (second column graphs), -3 (third column graphs), and -1 (fourth column graphs) were subcloned into pIRES2-EGFP. […]
To confirm the interaction between galectin-9 and TIM-3, both galectin-9 isoform cDNAs were subcloned into an expression vector that bicistronically expresses EGFP protein. […] In transient transfection, expression of galectin-9 was not detected on the cell surface. […]

[2] = target: T2, galectin-9 R64A (mutation in N-terminal CRD domain), expressed in CHO cells (mouse, UniProt O08573 1-353); assay: intracellular staining of transfected CHO cells by sTIM-3-Ig, flow cytometry
T2 construct: Intracellular staining; also called mutant galectin-9 N-terminal CRD
Protocol: (§1) FIGS. 12A-12C show galectin-9 recognizes the β-galactoside bond in oligosaccharide chains of TIM-3. FIG. 12A Galectin-9 expression plasmid was transiently transfected into CHO cells and fixed for intracellular staining by sTIM-3-Ig. Incubation buffers with different concentrations from 0 to 100 mM of α-lactose were used in the experiments. Bars in the histograph represent percentage of double positive cell population for EGFP and sTIM-3-Ig staining in presence of different concentration of a-lactose. FIG. 12B Two μg of r-galectin-9 was mixed with 4 μg sTIM-3-Ig in presence of different concentration of a-lactose from 0 to 100 mM in a pull-down experiment. Elutes from protein G beads were applied to SDS-PAGE and stained by Coomassie blue. A band at 50 kD represents sTIM-3-Ig, and the one at 38 kD stands for r-galectin-9. FIG. 12C CRD domains in galectin-9 are required for interaction with TIM-3. Constructs with mutation of R64A in N-terminal CRD domain (second column graphs), R238A in C-terminal CRD domain (third column graphs), or both (fourth column graphs) were generated and subcloned into expression vector pIRES2-EGFP. CHO cells were transiently transfected by wt (first column graphs) and mutant galection-9 expression plasmids (second through fourth column graphs) for intracellular staining by sTIM-3-Ig. EGFP and anti-human IgG-Fc-PE double positive standard for interaction between galectin-9 and sTIM-3-Ig.

[3] = target: T3, galectin-9 R238A (mutation in C-terminal CRD domain), expressed in CHO cells (mouse, UniProt O08573 1-353); assay: as above
T3 construct: Intracellular staining; also called mutant galectin-9 C-terminal CRD
Protocol: as §1

[4] = target: T4, galectin-9 R64A and R238A (double mutation in both CRD domains), expressed in CHO cells (mouse, UniProt O08573 1-353); assay: as above
T4 construct: Intracellular staining; also called double mutant galectin-9
Protocol: as §1

[5] = target: T5, recombinant galectin-9 (r-galectin-9) (mouse, UniProt O08573 1-353); assay: pull-down with protein G beads, SDS-PAGE, Coomassie blue
T5 construct: Any vector-derived tag is not described; also called purified recombinant galectin-9
Excerpt: FIG. 11A Both regular and long isoforms for galectin-9 (galectin-9 and galectin-9-L respectively) are able to bind to TIM-3. Protein sequences between two galectin-9 isoforms are identical except a 31 amino acid peptide insert in the hinge region of galectin-9-L. Murine cDNAs for isoforms of galectin-9 from TK-1 cells were subcloned into a eukaryotic bicistronic expression vector pIRES2-EGFP. The plasmids were transiently transfected into CHO cells respectively. Cells were fixed for intracellular staining with flTIM-3-Ig (top row graphs), sTIM-3-Ig (center row graphs), and hIgG (bottom row graphs) and detected by anti-human IgG-Fc-PE 48 hours after transfection. EGFP positive signals in FACS analyses indicated transfected cells. The anti-human IgG-Fc-PE was used to detect the binding from Ig fusions or hIgG. FIG. 11B Murine cDNAs for galectin-9 (first column graphs), -4 (second column graphs), -3 (third column graphs), and -1 (fourth column graphs) were subcloned into pIRES2-EGFP. The plasmids and the empty vector (fifth column graphs) that only produces EGFP were transiently transfected into CHO for intracellular staining by s-TIM-3-Ig respectively. The anti-human IgG-Fc-PE was used to detect sTIM-3-Ig binding. FIG. 11C Galectin-9 cDNA was subcloned into prokaryotic expression vector pTrcHis 2B. […]

[6] = target: T6, murine galectin-9 (regular isoform), expressed in transiently transfected CHO cells (mouse, UniProt O08573 1-353); assay: intracellular staining of galectin-9 transfected CHO cells, flow cytometry
T6 construct: Expressed from pIRES2-EGFP in CHO cells; not found on the cell surface, detected by intracellular staining of fixed cells; also called regular galectin-9; wt galectin-9

[7] = target: T7, galectin-9 of TK-1 cells (biotinylated membrane associated 40 to 60 kD band, 35 kD after PNGase F) (UniProt O08573-2 1-322, limits assumed, surface biotinylated with NHS-LC-Biotin); assay: pull-down from lysate of surface biotinylated TK-1 cells, Protein G-agarose, Western blot
T7 construct: Endogenous protein pulled down from cell lysate; also called 35 kD protein
Protocol: FIG. 10A TK-1 cells express the highest level of TIM-3 ligand(s). Three T cell lines, TK-1, S49.1G.3PHA 100/0, and BW1547.G.1.4, were stained by biotinylated sTIM-3-Ig (0.4 mg/ml) at 1:20 (top row graphs) and 1:50 dilutions (center row graphs), and detected by anti-human IgG-Fc-PE for the TIM-3 ligand expression. All T cell lines are stained positively by TIM-3 fusions FACS analysis, among which up to 90% of TK-1 were positively stained by both flTIM-3-Ig and sTIM-3-Ig (bottom row graphs). […] Extracellular membrane associated proteins on live TK-1 cells were biotinylated by NHS-LC-Biotin in PBS pH7.9 buffer at room temperature. Reaction was stopped by DMEM medium after 1 hour incubation. Cell lysate from the biotinylated TK-1 cells was used in pull-down experiment by incubating with 5 μg flTIM-3-Ig, sTIM-3-Ig, TIM-2-Ig, and hIgG respectively plus Protein G-agarose beads at 4° C. Protein samples eluted from beads were treated with or without PNGase F to remove N-linked sugar chains, and applied to SDS-PAGE and Western blot. Only signals from biotinylated membrane associated proteins bound to avidin conjugated peroxidase and were detected by chemiluminescent signal. […]

T1 sequence (O08573 whole entry, canonical isoform): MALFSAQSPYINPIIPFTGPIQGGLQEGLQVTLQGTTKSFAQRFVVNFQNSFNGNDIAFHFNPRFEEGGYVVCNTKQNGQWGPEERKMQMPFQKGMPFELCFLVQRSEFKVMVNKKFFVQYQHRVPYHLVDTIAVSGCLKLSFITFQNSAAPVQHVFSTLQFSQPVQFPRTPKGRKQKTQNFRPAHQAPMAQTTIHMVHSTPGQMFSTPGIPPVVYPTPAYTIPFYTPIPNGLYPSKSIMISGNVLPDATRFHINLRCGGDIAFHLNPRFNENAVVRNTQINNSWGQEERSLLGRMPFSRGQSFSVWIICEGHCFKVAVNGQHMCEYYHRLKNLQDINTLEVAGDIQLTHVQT
T4 sequence (O08573 other isoform, or with tags, fused parts or gaps R64A R238A R64A R238A): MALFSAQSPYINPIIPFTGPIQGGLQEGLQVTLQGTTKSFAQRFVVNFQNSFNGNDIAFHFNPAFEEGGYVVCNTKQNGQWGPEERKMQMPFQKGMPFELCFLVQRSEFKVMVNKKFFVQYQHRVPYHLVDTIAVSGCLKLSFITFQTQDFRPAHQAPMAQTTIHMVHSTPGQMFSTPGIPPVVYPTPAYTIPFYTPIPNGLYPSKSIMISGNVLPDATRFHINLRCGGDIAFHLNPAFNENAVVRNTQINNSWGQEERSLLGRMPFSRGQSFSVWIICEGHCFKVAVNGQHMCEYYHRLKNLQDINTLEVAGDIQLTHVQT
T7 sequence (O08573 other isoform, or with tags, fused parts or gaps limits assumed): as the sequence (O08573 other isoform, or with tags, fused parts or gaps R64A R238A R64A R238A) above, with A64R, D150N, A238R counted along it
T3 sequence (O08573 other isoform, or with tags, fused parts or gaps R238A R238A): as the sequence (O08573 other isoform, or with tags, fused parts or gaps R64A R238A R64A R238A) above, with A64R counted along it
T6 sequence (O08573 other isoform, or with tags, fused parts or gaps): as the sequence (O08573 other isoform, or with tags, fused parts or gaps R64A R238A R64A R238A) above, with A64R, A238R counted along it
T5 sequence (O08573 other isoform, or with tags, fused parts or gaps limits assumed): as the sequence (O08573 other isoform, or with tags, fused parts or gaps R64A R238A R64A R238A) above, with A64R, A238R counted along it
T2 sequence (O08573 other isoform, or with tags, fused parts or gaps R64A R64A): as the sequence (O08573 other isoform, or with tags, fused parts or gaps R64A R238A R64A R238A) above, with A238R counted along it

Binder | binding result [1] | binding result [2] | binding result [3] | binding result [4] | binding result [5] | binding result [6] | binding result [7]
full-length Tim-3-Ig fusion protein (ex-Tim-3-Ig) (Fc fusion, biotinylated in some cell staining experiments, expressed in NS.1 cells; also called flTIM-3-Ig; flTim-3-Ig; not shown: human IgG1 Fc tail) RSLEDGYKVEVGKNAYLPCSYTLPTSGTLVPMCWGKGFCPWSQCTNELLRTDERNVTYQKSSRYQLKGDLNKGDVSLIIKNVTLDDHGTYCCRIQFPGLMNDKKLELKLDIKAAKVTPAQTAHGDSTTASPRTLTTERNGSETQTLVTLHNNNGTKISTWADEIKDSGETIRTA | binds | – | – | – | – | – | –
soluble Tim-3-Ig fusion protein (s-Tim-3-Ig) (Fc fusion, biotinylated in some cell staining experiments, not shown: human IgG1 Fc tail) LEDGYKVEVGKNAYLPCSYTLPTSGTLVPMCWGKGFCPWSQCTNELLRTDERNVTYQKSSRYQLKGDLNKGDVSLIIKNVTLDDHGTYCCRIQFPGLMNDKKLELKLDIKA | binds | binds | binds | no binding | – | – | –
TIM-2-Ig (Fc fusion, UniProt Q8R183 22-231, looked up, Control Ig fusion; also called TIM-2 Ig fusion; not shown: Ig part of the fusion not described) HTAVQGLAGHPVTLPCIYSTHLGGIVPMCWGLGECRHSYCIRSLIWTNGYTVTHQRNSLYQLKGNISEGNVSLTIENTVVGDGGPYCCVVEIPGAFHFVDYMLEVKPEISTSPPTRPTATGRPTTISTRSTHVPTSTRVSTSTSPTPAHTETYKPEATTFYPDQTTAEVTETLPDTPADWHNTVTSSDDPWDDNTEVIPPQKPQKNLNKG | – | – | – | – | no binding | no binding | no binding (tested: 5 µg)
